From publication PMC7241714, “Structure-function investigation of 3-methylaspartate ammonia lyase reveals substrate molecular determinants for the deamination reaction” (PLoS ONE, 2020)
Read-outs that look alike come from different tables or passages of the source.

Experiments:
[1] = biological target: T1, 3-methylaspartate ammonia lyase (CaMAL) (Citrobacter amalonaticus, UniProt O66145); test: steady-state inhibition kinetics of 3-methylaspartate deamination (UV assay); assay type: biochemical
T1 construct: C-terminal His-tag

[2] = substrate: C[C@H](C(=O)O)[C@H](N)C(=O)O; test: purified protein; assay type: biochemical, Carboxydothermus hydrogenoformans; conditions: Mg2+; pH 9.0; 30.0 °C
[3] = substrate: C[C@H](C(=O)O)[C@H](N)C(=O)O; test: purified protein; assay type: biochemical, Citrobacter amalonaticus; conditions: Mg2+ catalytic pocket; pH 9.0; 30.0 °C
[4] = substrate: C[C@H](C(=O)O)[C@H](N)C(=O)O; test: purified protein; assay type: biochemical, Clostridium tetanomorphum; conditions: Mg2+; pH 9.0; 30.0 °C
[5] = substrate: N[C@@H](CC(=O)O)C(=O)O; test: purified protein; assay type: biochemical, Clostridium tetanomorphum; conditions: Mg2+; pH 9.0; 30.0 °C

## NC(CC(=O)O)CC(=O)O [β-glutamic acid]
[1]; read-out: Ki
  Ki: 71 ± 3 mM

## NCCC[C@H](N)CC(=O)O [β-lysine]
[1]
  Ki: 1.7 ± 0.4 mM

B1: 3-methylaspartate ammonia lyase (ChMAL) (Carboxydothermus hydrogenoformans Z-2901) (protein)
chain: MRIKDVLFVKGSSGFYFDDQKAIKSGAVTDGFTYKGKPLTPGFSRVRQGGEAVSIMLFLENGEIAVGDCVAVQYSGVDGRDPVFLADNFIEVLEEEIKPRLVGYNLVRFREAARYFTNLTDKRGKRYHTALRYGLTQALLDAVAKINRTTMAEVIAEEYGLDLTLNPVPLFAQSGDDRYINADKMILKRVDVLPHGLFNHPAKTGEEGKNLTEYALWLKQRIKTLGDHDYLPVFHFDVYGTLGTVFNDNLDRIADYLARLEEKVAPHPLQIEGPVDLGSKERQIEGLKYLQEKLITLGSKVIIVADEWCNNLSDIKEFVDAGAGGMVQIKSPDLGGVNDIIEAVLYAKEKGTGAYLGGSCNETDVSAKITVHVGLATGPAQLLVKPGMGVDEGLTIMRNEMMRTLAILQRNKVTFQKKVG
notes: C-terminal His-tag
[2]
  Km: 1380 ± 170 µM
  kcat: 66 ± 2 s⁻¹

B2: 3-methylaspartate ammonia lyase (CaMAL) (Citrobacter amalonaticus) (protein)
chain: MKIKQALFTAGYSSFYFDDQQAIKNGAGHDGFIYTGDPVTPGFTSVRQAGECVSVQLILENGAVAVGDCAAVQYSGAGGRDPLFLAEHFIPFLNDHIKPLLEGRDVDAFLPNARFFDKLRIDGNLLHTAVRYGLSQALLDATALASGRLKTEVVCDEWQLPCVPEAIPLFGQSGDDRYIAVDKMILKGVDVLPHALINNVEEKLGFKGEKLREYVRWLSDRILSLRSSPRYHPTLHIDVYGTIGLIFDMDPVRCAEYIASLEKEAQGLPLYIEGPVDAGNKPDQIRMLTAITKELTRLGSGVKIVADEWCNTYQDIVDFTDAGSCHMVQIKTPDLGGIHNIVDAVLYCNKHGMEAYQGGTCNETEISARTCVHVALAARPMRMLIKPGMGFDEGLNIVFNEMNRTIALLQTKD
notes: C-terminal His-tag
[3]
  Km: 1000 ± 60 µM
  kcat: 17.6 ± 0.3 s⁻¹

B3: 3-methylaspartate ammonia lyase (CtMAL) (Clostridium tetanomorphum) (protein)
chain: MKIVDVLCTPGLTGFYFDDQRAIKKGAGHDGFTYTGSTVTEGFTQVRQKGESISVLLVLEDGQVAHGDCAAVQYSGAGGRDPLFLAKDFIPVIEKEIAPKLIGREITNFKPMAEEFDKMTVNGNRLHTAIRYGITQAILDAVAKTRKVTMAEVIRDEYNPGAEINAVPVFAQSGDDRYDNVDKMIIKEADVLPHALINNVEEKLGLKGEKLLEYVKWLRDRIIKLRVREDYAPIFHIDVYGTIGAAFDVDIKAMADYIQTLAEAAKPFHLRIEGPMDVEDRQKQMEAMRDLRAELDGRGVDAELVADEWCNTVEDVKFFTDNKAGHMVQIKTPDLGGVNNIADAIMYCKANGMGAYCGGTCNETNRSAEVTTNIGMACGARQVLAKPGMGVDEGMMIVKNEMNRVLALVGRRK
notes: C-terminal His-tag
[4]
  Km: 3990 ± 610 µM
  kcat: 7.6 ± 0.4 s⁻¹
[5]
  Km: 67000 ± 6000 µM
  kcat: 1.6 ± 0.1 s⁻¹
